The experiment deals with T1, hFc-MUC1-C/ED (MUC1-C extracellular domain fused to human Fc) (human, UniProt P15941 1098-1155, secreted from CHO-K1 cells; the filing reports N-linked glycosylation of MUC1-C at Asn-36).
T1 construct: Purified on protein A; also called hFc-MUC1-C extracellular domain; not shown: human Fc fragment (hFc) amplified from the CD5-IgG1 plasmid (Aruffo et al., 1990)
T1 sequence: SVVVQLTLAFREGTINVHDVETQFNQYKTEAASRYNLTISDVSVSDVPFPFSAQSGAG
Kind of experiment: SPR (BIACORE 3000, 25 C), galectin-3(63-250) amine-coupled to a CM5 chip, hFc-MUC1-C/ED injected at 0-100 nM, 1:1 binding with drifting baseline; galectin-3(63-250), CRD fragment. Background: Surface plasmon resonance follows binding to a sensor surface in real time, without labels.

B1: galectin-3(63-250) (ligand)
chain: YHGAPGAYPGAPAPGVYPGPPSGPGAYPSSGQPSAPGAYPATGPYGAPAGPLIVPYNLPLPGGVVPRMLITILGTVKPNANRIALDFQRGNDVAFHFNPRFNENNRRVIVCNTKLDNNWGREERQSVFPFESGKPFKIQVLVEPDHFKVAVNDAHLLQYNHRVKKLNEISKLGISGDIDLTSASYTMI
notes: Fragment that contains the CRD, purified from E. coli and coupled to a CM5 chip
A word on the Kd: it is the equilibrium constant for the complex coming apart. In the case of B1, the equilibrium dissociation constant (Kd) amounted to 9.8 nM. That is a single-digit nanomolar value.

(Values after patent US20100098683A1 (Dana-Farber, published 2010).)
